Test results published in publication PMC3296483 (Biochemical Journal, 2011).

B1: rat GluA1 amino-terminal domain (P4-A374), tags removed (domain or fragment, UniProt P19490 22-392, looked up)
chain: PNNIQIGGLFPNQQSQEHAAFRFALSQLTEPPKLLPQIDIVNISDSFEMTYRFCSQFSKGVYAIFGFYERRTVNMLTSFCGALHVCFITPSFPVDTSNQFVLQLRPELQEALISIIDHYKWQTFVYIYDADRGLSVLQRVLDTAAEKNWQVTAVNILTTTEEGYRMLFQDLEKKKERLVVVDCESERLNAILGQIVKLEKNGIGYHYILANLGFMDIDLNKFKESGANVTGFQLVNYTDTIPARIMQQWRTSDSRDHTRVDWKRPKYTSALTYDGVKVMAEAFQSLRRQRIDISRRGNAGDCLANPAVPWGQGIDIQRALQQVRFEGLTGNVQFNEKGRRTNYTLHVIEMKHDGIRKIGYWNEDDKFVPAA

What was measured:
[1] = biological target: GluA2 ATD (Rattus norvegicus) (UniProt P19491); conditions: cited from earlier work
Sequence of GluA2 ATD (Rattus norvegicus) (P19491 22-398): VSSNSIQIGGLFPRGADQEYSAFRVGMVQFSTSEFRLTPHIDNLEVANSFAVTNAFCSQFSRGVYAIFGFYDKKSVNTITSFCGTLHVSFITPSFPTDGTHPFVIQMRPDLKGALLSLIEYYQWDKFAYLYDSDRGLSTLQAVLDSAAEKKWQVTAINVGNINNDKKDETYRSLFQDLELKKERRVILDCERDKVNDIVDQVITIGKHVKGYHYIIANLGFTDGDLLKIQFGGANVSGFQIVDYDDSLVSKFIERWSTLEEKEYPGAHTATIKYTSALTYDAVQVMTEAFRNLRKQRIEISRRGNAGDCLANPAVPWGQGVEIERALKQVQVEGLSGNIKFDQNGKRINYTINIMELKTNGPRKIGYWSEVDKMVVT

crystal structure = biological target: the molecule itself; assay: crystal structure

Row | Molecule | Kd [1] | binding result (crystal structure)
1 | GluA1 ATD (from UniProt P19490) | 0.4 nM | –
2 | B1 | – | binds
